From patent US20100028924A1 (RAPPAPORT FAMILY INSTITUTE RESEARCH IN THE MEDICAL SCIENCES, published 2010)
Positions count from the first letter of the chain named.

B1: wt rePON1-192K (enzyme)
chain: MAKLTALTLLGLGLALFDGQKSSFQTRFNVHREVTPVELPNCNLVKGVDNGSEDLEILPNGLAFISSGLKYPGIMSFDPDKSGKILLMDLNEEDPVVLELGITGNTLDISSFNPHGISTFTDEDNTVYLLVVNHPDSSSTVEVFKFQEEEKSLLHLKTIRHKLLPSVNDIVAVGPEHFYATNDHYFADPYLKSWEMHLGLAWSFVTYYSPNDVRVVAEGFDFANGINISPDGKYVYIAELLAHKIHVYEKHANWTLTPLKSLDFDTLVDNISVDPVTGDLWVGCHPNGMRIFYYDPKNPPGSEVLRIQDILSEEPKVTVVYAENGTVLQGSTVAAVYKGKLLIGTVFHKALYCEL
B2: rePON1-192Q (enzyme)
chain: B1 chain with K192Q
B3: rePON1-192R (enzyme)
chain: B1 chain with K192R

biological target: rHDL-apoA-I (reconstituted discoidal HDL particles carrying apolipoprotein A-I); experiment: cell-based or functional assay

Row | Binder | increase of cholesterol efflux from macrophages relative to rHDL-apoA-I alone [%]
1 | B1 | 93
2 | B2 | 30
3 | B3 | 67
